Measured values from US7645583B2, “Identification of compounds for inhibiting complexation of C-reactive protein with fibronectin” (Kimberly-Clark Worldwide, Inc., priority 2005, dated 2010).

Target: CRP/Fn binding (CRP captured on immobilized CRP antibody, Fn injected) (Homo sapiens, UniProt P02741+P02751)
Test: SPR (Biacore X) in vitro model of the inhibitory effect of test compounds on CRP/Fn binding
Set-up: 10 μL of CRP antigen 6 (50 μg/mL) was injected in flow channel 2
Details: for inhibitory effect on CRP/Fn binding (in words): at the conditions of Table 3; for SPR Response (RU): control without inhibitor 118 RU
Method: An in vitro model was designed to determine inhibitory effect of several different test compounds on CRP/Fn binding. Surface plasmon resonance (SPR) measurements were performed using a Biacore® X system and amine coupling kit for immobilization. […] All experiments were performed at 25° C., unless otherwise specified. The SPR technology used is based on optical phenomena in which the measured response depends on a change in refractive index in the close vicinity of the sensor chip surface. The response in such systems is proportional to the mass of analyte bound to the surface. The SPR method was used to monitor continuous analysis over the course of the interaction. […] (catalog number A58110228P), which specifically binds to calcium/phosphocholine site of CRP, was immobilized on a surface of a sensor chip 23 (CM5, carboxyl functionalized) via amine coupling chemistry as is generally known in the art. Following immobilization of the antibody to the surface of the chip 23, 10 μL of CRP antigen 6 (50 μg/mL) was injected in flow channel 2. Following this injection, 60 μL of an Fn solution 8 was injected into both flow channel 1 and flow channel 2 for two minutes duration (association phase), followed by 2 minutes delay time (dissociation phase). […] The process was repeated with an Fn solution including no inhibitor material as a control as well as several Fn solutions including various inhibitor compounds as herein described. Fn concentration was 1 mg/mL in all solutions.

[1] = inhibitor 50 μM, Fn 1 mg/mL, 25° C.
[2] = inhibitor 50 μM, Fn 1 mg/mL, 25° C., relative to control without inhibitor

Chain of CRP/Fn binding (CRP captured on immobilized CRP antibody, Fn injected) (P02741 19-224): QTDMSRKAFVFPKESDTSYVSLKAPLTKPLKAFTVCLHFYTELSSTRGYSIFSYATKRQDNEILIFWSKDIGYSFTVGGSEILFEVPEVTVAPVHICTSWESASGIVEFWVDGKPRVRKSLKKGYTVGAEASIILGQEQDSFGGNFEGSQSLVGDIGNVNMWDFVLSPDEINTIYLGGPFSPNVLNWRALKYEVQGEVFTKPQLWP
Chain of CRP/Fn binding (CRP captured on immobilized CRP antibody, Fn injected) (P02751 32-2477): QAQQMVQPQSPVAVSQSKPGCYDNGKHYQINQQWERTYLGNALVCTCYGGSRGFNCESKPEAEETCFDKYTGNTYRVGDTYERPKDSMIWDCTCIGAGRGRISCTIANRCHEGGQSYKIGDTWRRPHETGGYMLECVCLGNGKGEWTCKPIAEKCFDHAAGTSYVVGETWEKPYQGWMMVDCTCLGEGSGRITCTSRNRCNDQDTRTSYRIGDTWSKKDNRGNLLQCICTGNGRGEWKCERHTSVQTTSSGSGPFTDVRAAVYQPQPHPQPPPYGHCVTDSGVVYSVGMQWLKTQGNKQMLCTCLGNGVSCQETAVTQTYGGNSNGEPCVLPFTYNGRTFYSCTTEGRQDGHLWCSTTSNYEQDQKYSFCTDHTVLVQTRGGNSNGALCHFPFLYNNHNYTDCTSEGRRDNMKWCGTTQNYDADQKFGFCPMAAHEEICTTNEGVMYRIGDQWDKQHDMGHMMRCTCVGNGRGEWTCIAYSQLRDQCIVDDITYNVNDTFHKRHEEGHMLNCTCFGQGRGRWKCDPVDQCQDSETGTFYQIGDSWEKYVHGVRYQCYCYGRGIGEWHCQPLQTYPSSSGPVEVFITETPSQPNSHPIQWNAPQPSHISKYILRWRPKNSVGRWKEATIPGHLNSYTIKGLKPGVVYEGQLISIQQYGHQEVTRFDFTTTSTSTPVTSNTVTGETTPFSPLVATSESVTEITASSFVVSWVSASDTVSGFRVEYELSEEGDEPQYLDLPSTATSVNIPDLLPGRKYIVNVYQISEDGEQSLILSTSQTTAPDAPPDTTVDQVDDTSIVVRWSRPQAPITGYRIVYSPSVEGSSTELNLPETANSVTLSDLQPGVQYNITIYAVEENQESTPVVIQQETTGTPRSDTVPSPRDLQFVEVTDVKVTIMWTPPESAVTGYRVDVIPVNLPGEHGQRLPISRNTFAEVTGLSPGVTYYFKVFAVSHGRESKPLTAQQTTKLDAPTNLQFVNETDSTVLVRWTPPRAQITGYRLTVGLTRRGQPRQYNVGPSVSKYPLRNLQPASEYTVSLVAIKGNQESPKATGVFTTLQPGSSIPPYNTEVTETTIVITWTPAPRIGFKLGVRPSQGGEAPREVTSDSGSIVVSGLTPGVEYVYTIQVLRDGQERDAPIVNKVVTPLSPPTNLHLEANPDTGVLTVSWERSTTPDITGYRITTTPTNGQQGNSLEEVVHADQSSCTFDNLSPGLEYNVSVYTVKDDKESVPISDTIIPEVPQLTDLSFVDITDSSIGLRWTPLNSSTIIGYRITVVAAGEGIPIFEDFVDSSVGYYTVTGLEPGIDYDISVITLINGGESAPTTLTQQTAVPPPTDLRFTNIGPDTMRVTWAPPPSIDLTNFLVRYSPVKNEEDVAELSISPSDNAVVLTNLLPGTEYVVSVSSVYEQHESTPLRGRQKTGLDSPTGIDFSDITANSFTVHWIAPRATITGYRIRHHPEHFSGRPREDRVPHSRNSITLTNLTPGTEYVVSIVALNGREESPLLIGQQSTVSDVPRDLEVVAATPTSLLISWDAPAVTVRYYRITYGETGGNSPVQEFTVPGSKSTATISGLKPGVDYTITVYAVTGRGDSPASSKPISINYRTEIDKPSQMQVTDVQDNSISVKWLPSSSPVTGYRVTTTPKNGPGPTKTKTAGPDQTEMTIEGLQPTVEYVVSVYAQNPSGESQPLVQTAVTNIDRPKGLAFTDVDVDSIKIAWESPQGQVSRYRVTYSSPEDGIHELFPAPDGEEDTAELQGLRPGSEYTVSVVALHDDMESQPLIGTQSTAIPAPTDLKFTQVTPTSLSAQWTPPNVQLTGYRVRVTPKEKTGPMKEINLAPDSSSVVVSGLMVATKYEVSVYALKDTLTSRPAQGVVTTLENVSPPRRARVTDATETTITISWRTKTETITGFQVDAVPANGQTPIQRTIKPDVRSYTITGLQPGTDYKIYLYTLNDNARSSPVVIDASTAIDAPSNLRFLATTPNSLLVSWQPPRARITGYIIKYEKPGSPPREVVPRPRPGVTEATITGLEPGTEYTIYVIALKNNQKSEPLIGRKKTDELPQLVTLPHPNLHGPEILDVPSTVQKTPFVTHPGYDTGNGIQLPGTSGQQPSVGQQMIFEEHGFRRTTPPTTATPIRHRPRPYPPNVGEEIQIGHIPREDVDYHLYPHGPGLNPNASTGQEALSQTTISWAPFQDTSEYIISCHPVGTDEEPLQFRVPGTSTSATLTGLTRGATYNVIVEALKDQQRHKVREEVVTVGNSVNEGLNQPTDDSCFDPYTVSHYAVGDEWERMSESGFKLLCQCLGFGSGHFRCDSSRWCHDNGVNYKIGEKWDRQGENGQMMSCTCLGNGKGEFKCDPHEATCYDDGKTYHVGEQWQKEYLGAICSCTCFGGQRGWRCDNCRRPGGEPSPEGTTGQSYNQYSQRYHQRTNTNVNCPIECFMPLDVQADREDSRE

SPR Response (RU) (inhibitor 200 μM, Fn 1 mg/mL, 25° C.)	inhibition at 200 µM (inhibitor 200 μM, Fn 1 mg/mL, 25° C., relative to control without inhibitor) [%]	SPR Response (RU) (inhibitor 40 μM, Fn 1 mg/mL, 25° C.)	% Inhibition (inhibitor 40 μM, Fn 1 mg/mL, 25° C., relative to control without inhibitor) [%]	Molecule	inhibitory effect on CRP/Fn binding (in words)	SPR Response (RU) [1] [RU]	% Inhibition [2] [%]
				9-mer: 9 mer segment of SEQ ID NO.:11, specifically the first nine amino acids of SEQ ID NO.:11 (PRCGNPDVA; listed as Homo sapiens)	no significant effect	119	0.0
				10-mer: 10-mer polypeptide of SEQ ID NO.:12, exemplary inhibitor of CRP/Fn complexation (NYNFFPRKPK; listed as Homo sapiens)	somewhat less inhibitory effect	76	35.6
90	23.7			C=C1C[C@]23C[C@@]1(O)CC[C@H]2[C@@]12C=C[C@H](O)[C@@](C)(C(=O)O1)[C@H]2[C@@H]3C(=O)O [Gibberellic acid, gibberellic acid]	somewhat less inhibitory effect		
		94	20.4	CC/C=C\C[C@H]1C(=O)CC[C@@H]1CC(=O)O [Jasmonic acid, jasmonic acid]	somewhat less inhibitory effect		
